According to patent US5786169:

How the values were obtained:
Experiment in all cases: yeast interaction trap (two-hybrid), LexAop-lacZ reporter pJK103 in EGY48, galactose medium
[1] = target: LexA-Cdk2 (Hs) bait protein (human) (UniProt P24941)
[2] = target: LexA-Fus3 (Sc) bait protein (S. cerevisiae) (UniProt P16892)
[3] = target: LexA-Cdc2c (Dm) bait protein (Drosophila) (UniProt P23573)
[4] = target: LexA-Cdc2 (Hs) bait protein (human) (UniProt P06493)
[5] = target: LexA-Cdc2 (Dm) bait protein (Drosophila) (UniProt P23572)
[6] = target: LexA-Cdc28 (Sc) bait protein (S. cerevisiae) (UniProt P00546)

β-Galactosidase Activity (β-galactosidase units) [1]: 440
β-Galactosidase Activity (β-galactosidase units) [2]: > 2
β-Galactosidase Activity (β-galactosidase units) [3]: > 2
β-Galactosidase Activity (β-galactosidase units) [4]: 1580
β-Galactosidase Activity (β-galactosidase units) [5]: 40
β-Galactosidase Activity (β-galactosidase units) [6]: 480
Substance: tagged Cdi1 (activation-tagged prey fusion expressed from library plasmid pJG4-5)
